Assay results taken from patent US20200270359A1 (Genmab, published 2020).
Residue numbers refer to the chain shown, from its start. In names and notes the source's numbering stands.

B1: bsIgG1-016-H5L2-LC90S-F405L-E430Gx010-H5L2-K409R-E430G (bispecific antibody)
heavy 1: not shown
light 1: DVVMTQSPSTLSASVGDRVTITCQASQNIDSNLAWYQQKPGKAPKFLIYYASNLPFGVPSRFKGSGSGTEFTLTISSLQPDDFATYYCQSADVGSTYVAAFGGGTKVEIKRTVAAPSVFIFPPSDEQLKSGTASVVCLLNNFYPREAKVQWKVDNALQSGNSQESVTEQDSKDSTYSLSSTLTLSKADYEKHKVYACEVTHQGLSSPVTKSFNRGEC
heavy 2: not shown
light 2: AYDMTQSPSTLSASVGDRVTITCQASQNIIDYLAWYQQKPGKAPKLLIHKASTLASGVPSRFKGSGSGTEFTLTISSLQPDDFATYYCQQGYSNSNIDNTFGGGTKVEIKRTVAAPSVFIFPPSDEQLKSGTASVVCLLNNFYPREAKVQWKVDNALQSGNSQESVTEQDSKDSTYSLSSTLTLSKADYEKHKVYACEVTHQGLSSPVTKSFNRGEC
B2: IgG1-004-H5L2 (antibody)
heavy: not shown
light: AQVLTQSPSPLSASVGDRVTITCQASQSVYNSQNLAWYQQKPGKAPKLLIYEASKLASGVPSRFKGSGSGTEFTLTISSLQPDDFATYYCQGEFSCISADCTAFGGGTKVEIKRTVAAPSVFIFPPSDEQLKSGTASVVCLLNNFYPREAKVQWKVDNALQSGNSQESVTEQDSKDSTYSLSSTLTLSKADYEKHKVYACEVTHQGLSSPVTKSFNRGEC
B3: IgG1-004-H5L2-E430G (antibody)
heavy: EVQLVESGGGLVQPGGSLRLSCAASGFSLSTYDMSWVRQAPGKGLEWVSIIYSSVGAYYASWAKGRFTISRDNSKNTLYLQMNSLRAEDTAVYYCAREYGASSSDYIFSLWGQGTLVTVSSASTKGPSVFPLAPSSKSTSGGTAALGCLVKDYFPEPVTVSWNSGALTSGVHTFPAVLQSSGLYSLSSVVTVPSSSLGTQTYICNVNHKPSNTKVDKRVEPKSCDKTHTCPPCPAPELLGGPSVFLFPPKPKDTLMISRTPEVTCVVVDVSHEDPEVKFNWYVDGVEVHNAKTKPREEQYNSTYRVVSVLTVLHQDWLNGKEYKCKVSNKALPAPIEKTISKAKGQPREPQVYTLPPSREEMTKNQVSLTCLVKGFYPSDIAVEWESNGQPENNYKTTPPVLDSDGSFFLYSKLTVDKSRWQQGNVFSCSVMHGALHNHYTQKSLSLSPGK
light: B2 light
notes: IgG1,kappa with E430G (EU numbering)
B4: IgG1-010-H5L2 (antibody)
heavy: not shown
light: B1 light 2
notes: Humanized, IgG1,kappa
B5: IgG1-010-H5L2-E430G (antibody)
heavy: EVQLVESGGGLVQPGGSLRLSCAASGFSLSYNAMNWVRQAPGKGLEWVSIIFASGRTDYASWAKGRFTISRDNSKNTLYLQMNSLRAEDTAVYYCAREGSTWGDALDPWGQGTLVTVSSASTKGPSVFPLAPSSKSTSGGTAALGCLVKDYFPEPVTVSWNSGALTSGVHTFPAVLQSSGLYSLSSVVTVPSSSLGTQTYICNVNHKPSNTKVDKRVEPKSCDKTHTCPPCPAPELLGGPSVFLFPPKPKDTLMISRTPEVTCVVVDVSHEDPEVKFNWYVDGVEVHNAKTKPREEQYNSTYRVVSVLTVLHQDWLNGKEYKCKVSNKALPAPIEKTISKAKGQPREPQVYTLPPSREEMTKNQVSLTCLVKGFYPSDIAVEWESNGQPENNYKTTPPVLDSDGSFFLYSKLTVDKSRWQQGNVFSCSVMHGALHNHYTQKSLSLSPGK
light: B1 light 2
notes: as for B3
B6: IgG1-37.3 (antibody)
heavy: not shown
light: DIQMTQSPASLSVSVGETVTITCRASENIRSNLAWYQQKQGKSPQLLVNVATNLADGVPSRFSGSGSGTQYSLKINSLQSEDFGTYYCQHYWGTTWTFGGGTKLEIKRTVAAPSVFIFPPSDEQLKSGTASVVCLLNNFYPREAKVQWKVDNALQSGNSQESVTEQDSKDSTYSLSSTLTLSKADYEKHKVYACEVTHQGLSSPVTKSFNRGEC
notes: IgG1,kappa
B7: IgG1-37.3-E430G (antibody)
heavy: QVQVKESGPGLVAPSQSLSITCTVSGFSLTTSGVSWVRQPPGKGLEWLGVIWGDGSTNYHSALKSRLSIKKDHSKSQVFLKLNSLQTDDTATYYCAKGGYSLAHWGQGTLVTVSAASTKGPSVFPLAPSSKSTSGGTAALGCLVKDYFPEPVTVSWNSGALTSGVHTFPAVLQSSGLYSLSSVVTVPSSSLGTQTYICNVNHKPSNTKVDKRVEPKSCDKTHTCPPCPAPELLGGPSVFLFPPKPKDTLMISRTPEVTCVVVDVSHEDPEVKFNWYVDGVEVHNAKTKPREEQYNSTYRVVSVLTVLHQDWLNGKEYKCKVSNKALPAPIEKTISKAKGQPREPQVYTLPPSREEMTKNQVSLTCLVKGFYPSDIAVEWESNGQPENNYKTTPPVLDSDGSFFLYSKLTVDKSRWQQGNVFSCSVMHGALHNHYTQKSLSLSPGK
light: B6 light
notes: as for B3
B8: IgG1-005-H1L2-E430G (antibody)
heavy: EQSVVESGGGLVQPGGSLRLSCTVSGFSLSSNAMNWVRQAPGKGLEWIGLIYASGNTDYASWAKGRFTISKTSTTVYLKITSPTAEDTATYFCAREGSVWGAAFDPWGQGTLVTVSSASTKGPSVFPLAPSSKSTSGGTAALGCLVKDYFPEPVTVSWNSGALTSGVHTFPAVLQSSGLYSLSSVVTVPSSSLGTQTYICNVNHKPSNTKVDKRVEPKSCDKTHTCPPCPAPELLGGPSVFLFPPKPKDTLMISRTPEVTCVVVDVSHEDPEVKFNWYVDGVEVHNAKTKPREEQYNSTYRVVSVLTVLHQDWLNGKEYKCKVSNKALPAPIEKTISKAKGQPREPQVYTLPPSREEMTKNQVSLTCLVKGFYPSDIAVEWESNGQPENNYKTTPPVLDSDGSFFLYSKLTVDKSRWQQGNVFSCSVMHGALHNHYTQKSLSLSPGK
light: AYDMTQSPSSVSASVGDRVTITCQASQSISNWLAWYQQKPGKAPKQLIYAASTLASGVPSRFKGSGSGTDFTLTISSLQPEDFATYYCQQGYSNSNIDNTFGGGTKVEIKRTVAAPSVFIFPPSDEQLKSGTASVVCLLNNFYPREAKVQWKVDNALQSGNSQESVTEQDSKDSTYSLSSTLTLSKADYEKHKVYACEVTHQGLSSPVTKSFNRGEC
notes: as for B3
B9: IgG1-005-H1L2 (antibody)
heavy: not shown
light: B8 light
notes: Humanized, IgG1,kappa
B10: IgG1-G28.1 (antibody)
heavy: not shown
light: DIQMTQSPASLSASVGETVTITCRTSENVYSYLAWYQQKQGKSPQLLVSFAKTLAEGVPSRFSGSGSGTQFSLKISSLQPEDSGSYFCQHHSDNPWTFGGGTELEIKRTVAAPSVFIFPPSDEQLKSGTASVVCLLNNFYPREAKVQWKVDNALQSGNSQESVTEQDSKDSTYSLSSTLTLSKADYEKHKVYACEVTHQGLSSPVTKSFNRGEC
notes: IgG1,kappa
B11: IgG1-G28.1-E430G (antibody)
heavy: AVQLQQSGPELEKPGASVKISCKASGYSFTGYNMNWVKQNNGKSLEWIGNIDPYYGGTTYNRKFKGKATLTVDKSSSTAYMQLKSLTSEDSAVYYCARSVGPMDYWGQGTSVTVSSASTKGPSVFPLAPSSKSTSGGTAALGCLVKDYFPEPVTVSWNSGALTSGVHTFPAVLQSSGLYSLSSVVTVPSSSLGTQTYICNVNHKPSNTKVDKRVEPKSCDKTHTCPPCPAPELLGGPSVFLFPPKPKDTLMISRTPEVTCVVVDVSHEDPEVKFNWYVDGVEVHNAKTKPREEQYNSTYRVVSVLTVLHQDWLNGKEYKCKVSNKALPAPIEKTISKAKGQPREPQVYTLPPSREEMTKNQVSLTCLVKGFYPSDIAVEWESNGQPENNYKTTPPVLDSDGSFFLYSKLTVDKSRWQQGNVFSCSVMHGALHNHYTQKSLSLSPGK
light: B10 light
notes: as for B3
B12: IgG1-016-H5L2-E430G (antibody)
heavy: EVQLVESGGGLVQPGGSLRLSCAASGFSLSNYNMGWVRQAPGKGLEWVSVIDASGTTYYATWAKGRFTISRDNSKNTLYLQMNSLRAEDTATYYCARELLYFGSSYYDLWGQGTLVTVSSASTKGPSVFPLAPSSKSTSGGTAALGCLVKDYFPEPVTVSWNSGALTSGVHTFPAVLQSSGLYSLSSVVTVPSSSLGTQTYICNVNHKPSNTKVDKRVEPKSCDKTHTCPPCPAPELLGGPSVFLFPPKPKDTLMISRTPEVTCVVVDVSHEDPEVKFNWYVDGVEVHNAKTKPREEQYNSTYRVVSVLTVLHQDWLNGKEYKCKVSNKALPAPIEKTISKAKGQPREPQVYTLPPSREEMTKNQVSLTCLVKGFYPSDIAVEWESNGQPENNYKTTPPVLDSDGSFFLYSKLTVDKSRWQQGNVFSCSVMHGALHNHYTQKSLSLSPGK
light: B1 light 1 with S90C
notes: as for B3
B13: IgG1-016-H5L2 (antibody)
heavy: not shown
light: B1 light 1 with S90C
notes: Humanized, IgG1,kappa
B14: IgG1-016-H5L2-LC90S-F405L-E430G (antibody, V domains shown)
VH: EVQLVESGGGLVQPGGSLRLSCAASGFSLSNYNMGWVRQAPGKGLEWVSVIDASGTTYYATWAKGRFTISRDNSKNTLYLQMNSLRAEDTATYYCARELLYFGSSYYDLWGQGTLVTVSS
VL: DVVMTQSPSTLSASVGDRVTITCQASQNIDSNLAWYQQKPGKAPKFLIYYASNLPFGVPSRFKGSGSGTEFTLTISSLQPDDFATYYCQSADVGSTYVAAFGGGTKVEIKR
notes: IgG1,kappa; light chain C90S, heavy chain F405L and E430G (EU numbering)
B15: IgG1-016-H5L2-F405L-E430G (antibody)
heavy: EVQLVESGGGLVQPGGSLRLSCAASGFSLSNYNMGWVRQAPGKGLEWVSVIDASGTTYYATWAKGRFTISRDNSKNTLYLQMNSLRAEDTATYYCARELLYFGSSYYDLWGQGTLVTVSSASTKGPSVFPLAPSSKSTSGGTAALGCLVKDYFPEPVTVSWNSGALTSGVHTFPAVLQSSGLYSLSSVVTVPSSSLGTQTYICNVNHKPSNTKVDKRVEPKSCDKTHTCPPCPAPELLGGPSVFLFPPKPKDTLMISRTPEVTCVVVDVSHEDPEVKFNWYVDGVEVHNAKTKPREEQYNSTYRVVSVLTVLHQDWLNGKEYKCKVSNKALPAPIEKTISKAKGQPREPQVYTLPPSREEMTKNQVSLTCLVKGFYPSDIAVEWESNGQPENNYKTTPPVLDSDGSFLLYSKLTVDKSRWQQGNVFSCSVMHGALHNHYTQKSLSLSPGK
light: B1 light 1 with S90C
notes: IgG1,kappa with F405L and E430G (EU numbering)

What follows are binders tested against T1, human (Homo sapiens) CD37 (human (Homo sapiens), UniProt P11049 1-281) (assay: flow cytometry, A488-labeled antibody on B cells in human whole blood; average of 6 donors).
T1 construct: Full-length protein on cells: endogenous on Daudi cells, Raji cells and B cells in human blood; also called Leukocyte Antigen CD37; GP52-40
T1 sequence: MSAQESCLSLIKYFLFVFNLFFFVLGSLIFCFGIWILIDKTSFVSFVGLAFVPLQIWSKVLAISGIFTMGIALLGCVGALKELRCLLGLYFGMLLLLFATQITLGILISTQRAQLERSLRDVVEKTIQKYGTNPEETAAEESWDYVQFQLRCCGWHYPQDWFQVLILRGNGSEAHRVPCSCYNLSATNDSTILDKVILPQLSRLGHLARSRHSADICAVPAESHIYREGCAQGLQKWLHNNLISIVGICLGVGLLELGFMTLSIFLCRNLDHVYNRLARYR
Procedure: (§1) Cells were pelleted and washed twice in 150 μL FACS buffer and resuspended in 150 μL TO-PRO-3 (end concentration 0.2 μM; Molecular Probes, cat no. T3605). Samples were measured by flow cytometry using an LSRFortessa flow cytometer. Binding is expressed as geometric mean of A488 fluorescence intensity for viable TO-PRO-3⁻/CD14⁻/CD19⁺ B-cells (human) or viable TO-PRO-3⁻/CD14⁻/CD19+/CD20+ B-cells (cynomolgus monkey). Log-transformed data were analyzed using best-fit values of a non-linear dose-response fit in GraphPad PRISM.
In the case of B1, the EC50 is reported as 0.85 µg/mL.

These binders were tested against T1, human (Homo sapiens) CD37 (assay: flow cytometry on Daudi cells).
Procedure: (§2) Binding to cell surface expressed CD37 (Daudi cells, CHO cells expressing cynomolgus CD37) was determined by flow cytometry. Cells, resuspended in RPMI containing 0.2% BSA, were seeded at 100,000 cells/well in polystyrene 96 well round-bottom plates (Greiner bio-one Cat #650101) and centrifuged for 3 minutes at 300×g, 4° C. Serial dilutions (0.003-10 μg/mL final antibody concentration in 3.33× serial dilutions) of CD37 or control antibodies were added and cells were incubated for 30 minutes at 4° C. Plates were washed/centrifuged twice using FACS buffer (PBS/0.1% BSA/0.01% Na-Azide). Next, cells were incubated for 30 minutes at 4° C. with R-Phycoerythrin (PE)-conjugated goat-anti-human IgG F(ab′)2 (Jackson ImmunoResearch Laboratories, Inc., West Grove, Pa.; cat #: 109-116-098) diluted 1/100 in PBS/0.1% BSA/0.01% Na-Azide. Cells were washed/centrifuged twice using FACS buffer, resuspended in 30 μL FACS buffer and analyzed by determining mean fluorescent intensities using an Intellicyt iQue™ screener (Westburg). Binding curves were generated using non-linear regression (sigmoidal dose-response with variable slope) analyses within GraphPad Prism V6.04 software (GraphPad Software, Sand Diego, Calif., USA).
B2: binds.
B3: binds.
B4: binds.
B5: binds.
B6: binds.
B7: binds.
B8: binds.
B9: binds.
B10: binds.
B11: binds.
B12: binds.
B13: binds.
B14: binds.
B15: binds.

Molecular target: T2, cynomolgus monkey (Macaca fascicularis) CD37 (cynomolgus monkey (Macaca fascicularis), UniProt P11049 1-281 (human entry))
T2 construct: also called mfCD37; Cynomolgus CD37
T2 chain: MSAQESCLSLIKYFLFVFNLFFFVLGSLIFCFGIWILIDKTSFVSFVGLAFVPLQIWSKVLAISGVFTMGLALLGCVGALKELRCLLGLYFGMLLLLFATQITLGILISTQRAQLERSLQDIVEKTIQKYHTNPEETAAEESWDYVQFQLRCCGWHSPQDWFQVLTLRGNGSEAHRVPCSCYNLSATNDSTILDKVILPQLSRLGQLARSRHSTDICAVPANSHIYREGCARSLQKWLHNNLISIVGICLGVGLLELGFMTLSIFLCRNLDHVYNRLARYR
Experiment: flow cytometry, A488-labeled antibody on B cells in cynomolgus monkey whole blood; average of 4 animals
Procedure: as §1
Work on B1 yielded an EC50 of 0.63 µg/mL.

Molecular target: T2, cynomolgus monkey (Macaca fascicularis) …
Experiment: flow cytometry on CHO cells expressing cynomolgus monkey CD37
Procedure: as §2
Binding to CHO cells expressing cynomolgus monkey CD37 was determined by flow cytometry using a method as described above.
B3: binds.
B5: binds.
B8: binds.
B10: no binding (tested: 0.003-10 µg/mL).
B11: no binding (tested: 0.003-10 µg/mL).
B12: binds.
